Assay results from the supplement of paper PMC10724198.
± gives the standard deviation of the averaged measurements.

Assays:
Saccharomyces cerevisiae [1] = assay: protein stability index of tFT-peptide fusion (C-terminal peptide) (PSI (0-1 scale)); higher = more stable (slower turnover); details: genetic background: wild type; temperature: 30 C
Saccharomyces cerevisiae [2] = assay: as above
Description: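 MPS profiling in S. cerevisiae of the tFT-X12 degron library: putative degron peptides plus stable controls, 12 aa, fused to the C-terminus of a sfGFP-mCherry timer. Cells are FACS-sorted into 8 mCherry/sfGFP bins and deep-sequenced. PSI runs from 0 (unstable) to 1 (stable). Backgrounds are wild type, das1Δ and doa10Δ at 30 °C, and wild type, das1Δ, cdc34-1 and cdc53-1 at 37 °C; 2-3 technical replicates each.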

[3] = genetic background: cdc34-1, temperature: 37 C
[4] = genetic background: cdc53-1, temperature: 37 C
[5] = genetic background: das1 deletion, temperature: 30 C
[6] = genetic background: das1 deletion, temperature: 37 C
[7] = genetic background: doa10 deletion, temperature: 30 C
[8] = genetic background: wild type, temperature: 30 C
[9] = genetic background: wild type, temperature: 37 C
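Note: PSI is a weighted mean of sequencing reads over stability bins, variants kept only with over 10 reads, mCherry proximal and sfGFP distal, peptide attached via GGGS linker.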

Row | Sequence | protein stability index (Saccharomyces cerevisiae [1]) | protein stability index (Saccharomyces cerevisiae [2]; [3]) | protein stability index (Saccharomyces cerevisiae [2]; [4]) | protein stability index (Saccharomyces cerevisiae [2]; [5]) | protein stability index (Saccharomyces cerevisiae [2]; [6]) | protein stability index (Saccharomyces cerevisiae [2]; [7]) | protein stability index (Saccharomyces cerevisiae [2]; [8]) | protein stability index (Saccharomyces cerevisiae [2]; [9])
1 | SSVFRLKGLMFL | 0.442 ± 0.038 | 0.622 ± 0.062 | 0.721 ± 0.042 | 0.65 ± 0.047 | 0.7146 ± 0.0016 | 0.262 ± 0.0081 | 0.277 ± 0.016 | 0.448 ± 0.012
2 | SSVLLMFFCFVC | 0.262 ± 0.023 | 0.256 ± 0.02 | 0.388 ± 0.015 | 0.318 ± 0.014 | 0.476 ± 0.025 | 0.159 ± 0.012 | 0.164 ± 0.011 | 0.252 ± 0.019
3 | SSVLWVMFVFFY | 0.436 ± 0.058 | 0.313 ± 0.026 | 0.387 ± 0.0063 | 0.309 ± 0.058 | 0.442 ± 0.0026 | 0.264 ± 0.0091 | 0.253 ± 0.067 | 0.387 ± 0.027
4 | SVFGLLSVCFFY | 0.472 ± 0.019 | 0.488 ± 0.032 | 0.5669 ± 0.002 | 0.385 ± 0.029 | 0.604 ± 0.0077 | 0.358 ± 0.016 | 0.398 ± 0.018 | 0.549 ± 0.022
5 | SVKRVVPCLVSC | 0.45 ± 0.063 | 0.442 ± 0.0081 | 0.468 ± 0.0077 | 0.332 ± 0.035 | 0.525 ± 0.0063 | 0.289 ± 0.0049 | 0.337 ± 0.022 | 0.486 ± 0.0031
6 | SVLSFGVFCLVG | 0.538 ± 0.13 | 0.553 ± 0.043 | 0.65407 ± 0.00051 | 0.524 ± 0.023 | 0.61 ± 0.0077 | 0.4185 ± 0.0031 | 0.427 ± 0.033 | 0.527 ± 0.013
7 | SVPRTRAPRLIS | 0.384 ± 0.041 | 0.646 ± 0.027 | 0.73 ± 0.034 | 0.658 ± 0.025 | 0.71911 ± 0.00014 | 0.184 ± 0.0079 | 0.213 ± 0.024 | 0.4611 ± 0.00082
8 | SVVFFYPPIFHA | 0.437 ± 0.044 | 0.636 ± 0.057 | 0.7392 ± 0.006 | 0.678 ± 0.053 | 0.713 ± 0.016 | 0.28 ± 0.0055 | 0.326 ± 0.027 | 0.549 ± 0.011
9 | SVVYSVWIYLLH | 0.309 ± 0.0075 | 0.352 ± 0.018 | 0.4407 ± 0.0016 | 0.292 ± 0.022 | 0.484 ± 0.026 | 0.175 ± 0.0072 | 0.213 ± 0.03 | 0.392 ± 0.011
10 | TEVGAWLLLCRC | 0.363 ± 0.009 | 0.271 ± 0.051 | 0.307 ± 0.01 | 0.268 ± 0.034 | 0.403 ± 0.02 | 0.231 ± 0.0043 | 0.277 ± 0.017 | 0.385 ± 0.0097
11 | TFLVWSLMAGDR | 0.464 ± 0.03 | 0.449 ± 0.033 | 0.5276 ± 0.00077 | 0.447 ± 0.023 | 0.4667 ± 0.0043 | 0.484 ± 0.011 | 0.474 ± 0.043 | 0.459 ± 0.032
12 | TFRVLAFFCRVV | 0.367 ± 0.012 | 0.453 ± 0.0089 | 0.538 ± 0.015 | 0.47 ± 0.03 | 0.616 ± 0.059 | 0.308 ± 0.0053 | 0.286 ± 0.025 | 0.3902 ± 0.0029
13 | TKGIIKKINIIM | 0.36 ± 0.014 | 0.624 ± 0.14 | 0.73 ± 0.039 | 0.617 ± 0.016 | 0.724 ± 0.0084 | 0.154 ± 0.0088 | 0.206 ± 0.035 | 0.467 ± 0.09
14 | TLCCLVCSQGVV | 0.484 ± 0.016 | 0.478 ± 0.051 | 0.598 ± 0.013 | 0.471 ± 0.027 | 0.5217 ± 0.0031 | 0.482 ± 0.031 | 0.479 ± 0.039 | 0.526 ± 0.01
15 | TLFSPPVLATPS | 0.0225 ± 0.011 | 0.624 ± 0.042 | 0.6754 ± 0.0047 | 0.528 ± 0.026 | 0.676 ± 0.0092 | 0.513 ± 0.021 | 0.54 ± 0.014 | 0.644 ± 0.0088
16 | TLLSSIFLCLVL | 0.541 ± 0.1 | 0.575 ± 0.018 | 0.6448 ± 0.0023 | 0.477 ± 0.031 | 0.6128 ± 0.0011 | 0.466 ± 0.012 | 0.462 ± 0.024 | 0.574 ± 0.022
17 | TRHIGQYIHKIT | 0.339 ± 0.081 | 0.641 ± 0.048 | 0.734 ± 0.027 | 0.635 ± 0.027 | 0.694 ± 0.037 | 0.151 ± 0.0037 | 0.233 ± 0.049 | 0.436 ± 0.0061
18 | TSFLHLFVAAII | 0.513 ± 0.024 | 0.588 ± 0.027 | 0.632 ± 0.045 | 0.499 ± 0.02 | 0.5932 ± 0.0013 | 0.415 ± 0.009 | 0.434 ± 0.012 | 0.5505 ± 0.004
19 | TSLPPSPPPSPT | 0.476 ± 0.025 | 0.682 ± 0.016 | 0.713 ± 0.17 | 0.392 ± 0.044 | 0.563 ± 0.0085 | 0.373 ± 0.014 | 0.392 ± 0.012 | 0.562 ± 0.033
20 | TSPYTSFAHTSL | 0.69 ± 0.022 | 0.694 ± 0.029 | 0.739 ± 0.016 | 0.677 ± 0.031 | 0.739 ± 0.0074 | 0.662 ± 0.017 | 0.6569 ± 0.006 | 0.71286 ± 0.00012

Row | Sequence | protein stability index (Saccharomyces cerevisiae [1]) | protein stability index (Saccharomyces cerevisiae [2]; [3]) | protein stability index (Saccharomyces cerevisiae [2]; [4]) | protein stability index (Saccharomyces cerevisiae [2]; [5]) | protein stability index (Saccharomyces cerevisiae [2]; [6]) | protein stability index (Saccharomyces cerevisiae [2]; [7]) | protein stability index (Saccharomyces cerevisiae [2]; [8]) | protein stability index (Saccharomyces cerevisiae [2]; [9])
21 | VAFGVASGWCWF | 0.488 ± 0.02 | 0.748 ± 0.048 | 0.8066 ± 0.0046 | 0.687 ± 0.016 | 0.848 ± 0.0032 | 0.373 ± 0.0093 | 0.397 ± 0.015 | 0.6902 ± 0.0057
22 | VAFILVVCKGIG | 0.2024 ± 0.00042 | 0.187 ± 0.029 | 0.2776 ± 0.0022 | 0.175 ± 0.016 | 0.327 ± 0.0048 | 0.122 ± 0.015 | 0.152 ± 0.013 | 0.287 ± 0.0077
23 | VAWWVCIRSCCG | 0.486 ± 0.028 | 0.51 ± 0.023 | 0.55 ± 0.057 | 0.427 ± 0.027 | 0.577 ± 0.012 | 0.353 ± 0.012 | 0.395 ± 0.015 | 0.53 ± 0.0066
24 | VCCSSVSLLVFA | 0.374 ± 0.023 | 0.362 ± 0.017 | 0.363 ± 0.01 | 0.267 ± 0.028 | 0.44 ± 0.0076 | 0.225 ± 0.0042 | 0.256 ± 0.033 | 0.419 ± 0.01
25 | VCGYGFAVPCYT | 0.437 ± 0.02 | 0.489 ± 0.013 | 0.549 ± 0.021 | 0.37 ± 0.026 | 0.5832 ± 0.0026 | 0.327 ± 0.012 | 0.372 ± 0.012 | 0.535 ± 0.0076
26 | VCILLVAWCLMG | 0.217 ± 0.0097 | 0.168 ± 0.023 | 0.289 ± 0.049 | 0.24 ± 0.022 | 0.384 ± 0.0058 | 0.108 ± 0.02 | 0.124 ± 0.02 | 0.1546 ± 0.00053
27 | VCLLGWGVRLVS | 0.505 ± 0.079 | 0.667 ± 0.031 | 0.7294 ± 0.0045 | 0.609 ± 0.038 | 0.72374 ± 7.5e-05 | 0.321 ± 0.0052 | 0.371 ± 0.023 | 0.576 ± 0.01
28 | VCMHIVLLAASP | 0.193 ± 0.002 | 0.244 ± 0.02 | 0.317 ± 0.017 | 0.187 ± 0.0068 | 0.284 ± 0.014 | 0.201 ± 0.028 | 0.202 ± 0.021 | 0.263 ± 0.011
29 | VCSRWFFVFVVR | 0.388 ± 0.011 | 0.402 ± 0.033 | 0.424 ± 0.043 | 0.331 ± 0.035 | 0.523 ± 0.014 | 0.409 ± 0.014 | 0.291 ± 0.051 | 0.4917 ± 0.0013
30 | VCVFFRLCIVWY | 0.174 ± 0.036 | 0.061 ± 0.0092 | 0.101 ± 0.0031 | 0.127 ± 0.017 | 0.171 ± 0.0065 | 0.115 ± 0.013 | 0.103 ± 0.021 | 0.145 ± 0.012
31 | VDGVSFFVVLLC | 0.311 ± 0.036 | 0.406 ± 0.087 | 0.503 ± 0.0085 | 0.343 ± 0.029 | 0.537 ± 0.0077 | 0.189 ± 0.0091 | 0.198 ± 0.026 | 0.427 ± 0.0064
32 | VDSTCLLITLLA | 0.41 ± 0.0047 | 0.534 ± 0.1 | 0.4893 ± 0.0016 | 0.348 ± 0.036 | 0.506 ± 0.0053 | 0.245 ± 0.0068 | 0.296 ± 0.023 | 0.456 ± 0.02
33 | VEIKSKRMLVVI | 0.45639 ± 0.00022 | 0.5115 ± 0.0011 | 0.538 ± 0.039 | 0.426 ± 0.028 | 0.578 ± 0.0069 | 0.287 ± 0.013 | 0.322 ± 0.04 | 0.4749 ± 0.0012
34 | VEQLLYIKATNV | 0.408 ± 0.019 | 0.689 ± 0.012 | 0.7025 ± 0.0067 | 0.6088 ± 0.0057 | 0.7288 ± 0.0038 | 0.238 ± 0.029 | 0.29 ± 0.036 | 0.5062 ± 0.0015
35 | VFDFVFHLRFVV | 0.1155 ± 0.00063 | 0.336 ± 0.032 | 0.419 ± 0.0096 | 0.427 ± 0.028 | 0.468 ± 0.0082 | 0.091 ± 0.019 | 0.0905 ± 0.025 | 0.117 ± 0.011
36 | VFFCLFVLFLSG | 0.423 ± 0.18 | 0.302 ± 0.0038 | 0.397 ± 0.0068 | 0.264 ± 0.043 | 0.437 ± 0.0073 | 0.251 ± 0.0072 | 0.282 ± 0.015 | 0.408 ± 0.021
37 | VFFGLYLVTFTS | 0.409 ± 0.042 | 0.219 ± 0.036 | 0.302 ± 0.045 | 0.222 ± 0.026 | 0.379 ± 0.013 | 0.196 ± 0.015 | 0.202 ± 0.025 | 0.3575 ± 0.0028
38 | VFFHFFVCWRFV | 0.121 ± 0.019 | 0.184 ± 0.068 | 0.231 ± 0.013 | 0.25 ± 0.032 | 0.3646 ± 0.00069 | 0.0556 ± 0.014 | 0.0548 ± 0.018 | 0.0857 ± 0.0019
39 | VFFLLSVYMVMM | 0.307 ± 0.065 | 0.145 ± 0.018 | 0.29 ± 0.075 | 0.195 ± 0.055 | 0.3338 ± 0.0028 | 0.182 ± 0.03 | 0.184 ± 0.015 | 0.32 ± 0.02
